According to patent US20200407442A1 (WUXI BIOLOGICS IRELAND, published 2020):

T1: full-length human LAG-3 on cells (human, UniProt P18627 23-525)
T1 sequence: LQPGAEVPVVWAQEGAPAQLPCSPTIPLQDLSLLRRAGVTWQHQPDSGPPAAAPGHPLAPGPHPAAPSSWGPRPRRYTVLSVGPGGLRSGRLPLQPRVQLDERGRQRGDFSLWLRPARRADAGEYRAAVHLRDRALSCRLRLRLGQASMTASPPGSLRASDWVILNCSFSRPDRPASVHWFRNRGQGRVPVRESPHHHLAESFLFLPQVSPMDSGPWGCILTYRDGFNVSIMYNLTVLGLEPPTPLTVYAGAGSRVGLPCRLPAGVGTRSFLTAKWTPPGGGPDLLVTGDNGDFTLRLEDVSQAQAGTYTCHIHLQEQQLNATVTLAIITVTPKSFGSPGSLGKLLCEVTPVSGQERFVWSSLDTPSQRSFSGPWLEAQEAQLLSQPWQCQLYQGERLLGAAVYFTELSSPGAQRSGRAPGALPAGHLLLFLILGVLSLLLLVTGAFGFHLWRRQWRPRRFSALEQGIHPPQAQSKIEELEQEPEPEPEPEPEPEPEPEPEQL

T2: mFc-tagged LAG-3 protein (human, UniProt P18627 30-450)
T2 construct: also called human LAG-3 ECD with mouse Fc tag
T2 sequence: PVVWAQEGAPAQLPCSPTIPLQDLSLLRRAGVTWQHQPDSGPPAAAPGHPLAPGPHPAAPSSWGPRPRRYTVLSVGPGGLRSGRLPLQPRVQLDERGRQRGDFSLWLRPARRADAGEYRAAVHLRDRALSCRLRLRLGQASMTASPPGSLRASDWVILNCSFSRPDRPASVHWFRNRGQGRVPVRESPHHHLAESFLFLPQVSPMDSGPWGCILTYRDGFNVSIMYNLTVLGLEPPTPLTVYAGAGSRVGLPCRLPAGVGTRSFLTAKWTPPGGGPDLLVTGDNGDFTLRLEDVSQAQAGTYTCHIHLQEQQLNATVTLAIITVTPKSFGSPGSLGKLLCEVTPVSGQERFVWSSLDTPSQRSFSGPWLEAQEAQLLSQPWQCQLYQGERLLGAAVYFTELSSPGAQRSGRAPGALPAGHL

T3: human LAG-3 protein (SPR analyte) (human, UniProt P18627 30-450)
T3 sequence: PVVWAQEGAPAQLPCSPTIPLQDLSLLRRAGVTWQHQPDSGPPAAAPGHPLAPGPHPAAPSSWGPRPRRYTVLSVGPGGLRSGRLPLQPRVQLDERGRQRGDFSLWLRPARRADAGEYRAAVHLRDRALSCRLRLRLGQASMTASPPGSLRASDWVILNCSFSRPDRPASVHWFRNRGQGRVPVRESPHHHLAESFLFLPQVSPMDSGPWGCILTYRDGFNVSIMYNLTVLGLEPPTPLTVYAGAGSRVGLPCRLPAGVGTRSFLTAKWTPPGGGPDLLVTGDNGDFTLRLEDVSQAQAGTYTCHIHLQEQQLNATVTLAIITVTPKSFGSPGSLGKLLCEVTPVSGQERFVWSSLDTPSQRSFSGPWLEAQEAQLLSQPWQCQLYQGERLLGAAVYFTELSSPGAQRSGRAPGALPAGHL


How the values were obtained:
[1] = biological target: T1, full-length human LAG-3 on cells; assay: cell-based or functional assay
[2] = biological target: T1, full-length human LAG-3 on cells; assay: FACS on human LAG-3 transfectant cells
Procedure: Various concentrations of testing antibodies, positive and negative controls were added to human LAG-3 transfectant cells, and then the binding of antibodies onto the surface of the cells was detected by corresponding PE-labeled secondary antibodies.

[3] = biological target: T1, full-length human LAG-3 on cells; assay: FACS affinity on Flp-In-293 cells expressing human LAG-3
Procedure: Antibody binding affinity to cell surface LAG-3 was measured by FACS analysis. Flp-In-293 cells expressing human LAG-3 were transferred in to 96-well U-bottom plates at a density of 5×10⁵ cells/mL. Tested antibodies were serially diluted in wash buffer (1×PBS/1%BSA) and incubated with cells at 4° C. for 1 h. The secondary antibody goat anti-human IgG Fc FITC (3.5 moles FITC per mole IgG) was added and incubated at 4° C. in the dark for 0.5 h. The cells were then washed once and resuspended in 1×PBS/1%BSA, and analyzed by flow cytometry. Fluorescence intensity will be converted to bound molecules/cell based on the quantitative beads (QuantumTM MESF Kits, Bangs Laboratories, Inc.). Affinity was calculated using Graphpad Prism 5.

[4] = biological target: T2, mFc-tagged LAG-3 protein; assay: ELISA competition: blocks mFc-tagged LAG-3 binding to coated LSECtin
Procedure: 96-well plates were coated with human LSECtin or Galectin-3 at 0.5 μg/mL overnight at 4° C., respectively. Antibodies were serially diluted in 1% BSA-PBS and mixed with mFc-tagged LAG-3 protein. After blocking and washing, the mixture was transferred to the plates and incubated at room temperature for 1 h. The plates were then washed and subsequently incubated with corresponding secondary antibody for 60 min. After washing, TMB substrate was added and the color reaction was stopped by 2M HCl. The absorbance at 450 nm was read using a microplate reader.

[5] = biological target: T3, human LAG-3 protein (SPR analyte); assay: SPR Biacore 8K, antibody captured by anti-human Fc, LAG-3 as analyte
Procedure: Antibodies were characterized for affinity and binding kinetics to human LAG-3 by SPR assay using Biacore 8K. Goat anti-human Fc was pre-immobilized to a sensor chip (CMS), and anti-LAG-3 antibodies were captured when injected to the chip. Various concentrations of human LAG-3 protein and running buffer were flowed through the sensor chip at a flow rate of 30 μL/min for an association phase of 300 s, followed by 3600 s dissociation. The association and dissociation curve was fit by 1:1 Langmuir binding model using Biacore 8K Evaluation Software.

[6] = biological target: T2, mFc-tagged LAG-3 protein; assay: FACS competition: blocks mFc-tagged LAG-3 binding to MHC-II on Raji cells
Procedure: Antibodies were serially diluted in 1% BSA-PBS and incubated with mFc-tagged LAG-3 protein at 4° C. for 30 min. The mixture was transferred into the 96-well plates seeded with Raji cells. Goat anti-mouse IgG Fc-PE antibody was used to detect the binding of LAG-3 protein to Raji cells. The MFI was evaluated by flow cytometry and analyzed by the software FlowJo (version 7.6.1).

[7] = biological target: T1, full-length human LAG-3 on cells; assay: FACS competition on Flp-In-293 cells expressing human LAG-3: biotinylated BMK1 at 1 ug/mL, serially diluted antibody, Streptavidin-PE
Procedure: (§1) The binding epitope of LAG-3 antibodies was binned against benchmark antibodies BMK1, BMK7 and BMK5 by FACS assay. Flp-In-293 cells expressing human LAG-3 at the cell surface were incubated with biotinylated benchmark antibodies at concentration of 1 μg/mL for 1 hour, followed by the adding of serially diluted LAG-3 antibodies. Streptavidin-PE antibody (Jackson Immunoresearch Lab) was used to detect the binding of benchmark antibodies to cells. The MFI was evaluated by flow cytometry and analyzed by FlowJo.

[8] = biological target: T1, full-length human LAG-3 on cells; assay: FACS competition on Flp-In-293 cells expressing human LAG-3: biotinylated BMK7 at 1 ug/mL, serially diluted antibody, Streptavidin-PE
Procedure: as §1

| Binder | EC50, IL-2 luciferase reporter gene assay (Jurkat cells expressing human LAG-3 with Raji cells and SEE) [1] [nM] | EC50 [2] [nM] | Kd [3] [nM] | EC50 [4] [nM] | Kd [5] [nM] | koff [5] [s⁻¹] | kon [5] [M⁻¹ s⁻¹] | EC50 [6] [nM] | IC50 (read off the curve) [7] [nM] | IC50 (read off the curve) [8] [nM] |
| --- | --- | --- | --- | --- | --- | --- | --- | --- | --- | --- |
| 3.40.19-uAb-IgG4L (antibody, V domains shown, Fully human antibody from OMT rats; IgG4 lambda by its name; also called 3.40.19-uAb-hIgG4L) VH: QLQLQESGPGLVKPSETLSLTCTVSGDSISSTSYYWGWIRQPPGKGLEWIGSFYYSGSTYYNPSLKSRVTISVDTSKNQFSLKLNSVTAADTAVYYCARMQLWSYDVDVWGQGTTVTVSS VL: QSALTQPASVSGSPGQSITISCTGTSSDVGGYDYVAWYQQHPGKVPKLMIYDVSERPSGVSNRFSGSKSGNTASLTISGLQAEDEADYYCSSYTSTTTLVVFGGGTKLSVL | 0.21 | 0.13 | 0.053 | 0.51 | 0.0106 | 1.11e-05 | 1.05e+06 | 0.67 | – | – |
| 1.53.3-uAb-IgG4k (antibody, V domains shown, Fully human antibody from OMT rats; IgG4 kappa by its name) VH: QVQLQQWGAGLLKPSETLSLTCGVYGGSFSGYYWSWIRQPPGMGLEWIGEINHRGNTNYNPSLKSRVTISEDTSKNQFSLRLSSVTAADTAVYFCTRGEDYSDYDYYGDFWGQGTLVTVSS VL: EIVLTQSPATLSLSQGERATLSCRASQSISSYLAWYQQKPGQAPRLLIYAASNRATGIPARFSGSGSGTDFTLTISSLEPEDFAIYYCQQRSNWPLTFGGGTKVEIK | 1.07 | 0.43 | 0.16 | 0.71 | 0.0505 | 3.33e-05 | 660000 | 0.8 | ~5 | ~3 |
